This assay relates to coxsackievirus B3 (CVB3-GFP). The class given is cell-based. To be noted: HeLa cells, replicate R1; for Percent Infected R1: GFP-positive cells within RFP-positive gate.

Where “and” joins values, the source holds several entries; their conditions need not be identical. Identical values can stand only once.

B1: RSPRY1: human RING type E3 ligase expressed from lentiviral vector (protein, UniProt Q96DX4 17-576, looked up)
RING finger and SPRY …: QGLLLTLEEHIAHFLGTGGAATTMGNSCICRDDSGTDDSVDTQQQQAENSAVPTADTRSQPRDPVRPPRRGRGPHEPRRKKQNVDGLVLDTLAVIRTLVDNDQEPPYSMITLHEMAETDEGWLDVVQSLIRVIPLEDPLGPAVITLLLDECPLPTKDALQKLTEILNLNGEVACQDSSHPAKHRNTSAVLGCLAEKLAGPASIGLLSPGILEYLLQCLKLQSHPTVMLFALIALEKFAQTSENKLTISESSISDRLVTLESWANDPDYLKRQVGFCAQWSLDNLFLKEGRQLTYEKVNLSSIRAMLNSNDVSEYLKISPHGLEARCDASSFESVRCTFCVDAGVWYYEVTVVTSGVMQIGWATRDSKFLNHEGYGIGDDEYSCAYDGCRQLIWYNARSKPHIHPCWKEGDTVGFLLDLNEKQMIFFLNGNQLPPEKQVFSSTVSGFFAAASFMSYQQCEFNFGAKPFKYPPSMKFSTFNDYAFLTAEEKIILPRHRRLALLKQVSIRENCCSLCCDEVADTQLKPCGHSDLCMDCALQLETCPLCRKEIVSRIRQISHIS
Regarding B1, the “Percent Infected R1” value came out at 91.4% and the “Z score R1” value was 0.04.

B2: RNF11: human RING type E3 ligase expressed from lentiviral vector (protein, UniProt Q9Y3C5 2-154, looked up)
RING finger protein 11: GNCLKSPTSDDISLLHESQSDRASFGEGTEPDQEPPPPYQEQVPVPVYHPTPSQTRLATQLTEEEQIRIAQRIGLIQHLPKGVYDPGRDGSEKKIRECVICMMDFVYGDPIRFLPCMHIYHLDCIDDWLMRSFTCPSCMEPVDAALLSSYETN
B2: the “Percent Infected R1” value is given as 90.7% and the “Z score R1” value was 0.03.

B3: RNF148: human RING type E3 ligase expressed from lentiviral vector (protein, UniProt Q8N7C7 35-305, looked up)
RING finger protein 148: KAIWTAHLNITFQVGNEITSELGESGVFGNHSPLERVSGVVALPEGWNQNACHPLTNFSRPKQADSWLALIERGGCTFTHKINVAAEKGANGVIIYNYQGTGSKVFPMSHQGTENIVAVMISNLKGMEILHSIQKGVYVTVIIEVGRMHMQWVSHYIMYLFTFLAATIAYFYLDCVWRLTPRVPNSFTRRRSQIKTDVKKAIDQLQLRVLKEGDEELDLNEDNCVVCFDTYKPQDVVRILTCKHFFHKACIDPWLLAHRTCPMCKCDILKT
For B3, the “Percent Infected R1” value is given as 82.3% and the “Z score R1” value is given as −0.08.

B4: MARCH3: human RING type E3 ligase expressed from lentiviral vector (protein, UniProt Q86UD3 1-253, looked up)
E3 ubiquitin-protein ligase …: MTTSRCSHLPEVLPDCTSSAAPVVKTVEDCGSLVNGQPQYVMQVSAKDGQLLSTVVRTLATQSPFNDRPMCRICHEGSSQEDLLSPCECTGTLGTIHRSCLEHWLSSSNTSYCELCHFRFAVERKPRPLVEWLRNPGPQHEKRTLFGDMVCFLFITPLATISGWLCLRGAVDHLHFSSRLEAVGLIALTVALFTIYLFWTLVSFRYHCRLYNEWRRTNQRVILLIPKSVNVPSNQPSLLGLHSVKRNSKETVV
modifications: lentiviral expression
notes: human RING type E3 ligase expressed from lentiviral vector
As for B4, the “Percent Infected R1” value worked out at 91.4% and the “Z score R1” value was 0.04.

B5: RCHY1: human RING type E3 ligase expressed from lentiviral vector; listed twice (protein, UniProt Q96PM5 1-261, looked up)
RING finger and CHY zinc …: MAATAREDGASGQERGQRGCEHYDRGCLLKAPCCDKLYTCRLCHDNNEDHQLDRFKVKEVQCINCEKIQHAQQTCEECSTLFGEYYCDICHLFDKDKKQYHCENCGICRIGPKEDFFHCLKCNLCLAMNLQGRHKCIENVSRQNCPICLEDIHTSRVVAHVLPCGHLLHRTCYEEMLKEGYRCPLCMHSALDMTRYWRQLDDEVAQTPMPSEYQNMTVDILCNDCNGRSTVQFHILGMKCKICESYNTAQAGGRRISLDQQ
As to B5, the “Percent Infected R1” value is 97.6% and 91.2%; the “Z score R1” value was 0.11 and 0.03.

B6: RFPL3: human RING type E3 ligase expressed from lentiviral vector (protein, UniProt O75679 1-317, looked up)
Ret finger protein-like 3: MKRLSLVTTNRLSPQGNFLPLCTFPLAVDMAALFQEASSCPVCSDYLEKPMSLECGCTVCLKCINSLQKEPHGEDLLCCCCSMVSQRNKIRPNRQLERLVSHIKELEPKLKKILQMNPRMRKFQVDMTLDADTANNFLLISDDLRSVRSGLITQNRQDLAERFDVSVCILGSPRFTCGRHYWEVDVGTSTEWDLGVCRESVHCKGKIQLTTELGFWTVSLRDGSRLSASTVPLTFLLVDRKLQRVGIFLDMGMQNVSFFDAESGSHVYTFRSVSAEEPLRPFLAPSIPPNGDQGVLSICPLMNSGTTDAPVRPGEAK
modifications: lentiviral expression
notes: as for B4
In the case of B6, the “Percent Infected R1” value turned out to be 78.3% and the “Z score R1” value was −0.13.

B7: RNF133: human RING type E3 ligase expressed from lentiviral vector (protein, UniProt Q8WVZ7 1-376, looked up)
E3 ubiquitin-protein ligase …: MHLLKVGTWRNNTASSWLMKFSVLWLVSQNCCRASVVWMAYMNISFHVGNHVLSELGETGVFGRSSTLKRVAGVIVPPEGKIQNACNPNTIFSRSKYSETWLALIERGGCTFTQKIKVATEKGASGVIIYNVPGTGNQVFPMFHQAFEDVVVVMIGNLKGTEIFHLIKKGVLITAVVEVGRKHIIWMNHYLVSFVIVTTATLAYFIFYHIHRLCLARIQNRRWQRLTTDLQNTFGQLQLRVVKEGDEEINPNGDSCVICFERYKPNDIVRILTCKHFFHKNCIDPWILPHGTCPICKCDILKVLGIQVVVENGTEPLQVLMSNELPETLSPSEEETNNEVSPAGTSDKVIHVEENPTSQNNDIQPHSVVEDVHPSP
modifications: lentiviral expression
notes: as for B4
In the case of B7, the “Percent Infected R1” value was 94.9% and the “Z score R1” value is 0.08.

B8: RNF113B: human RING type E3 ligase expressed from lentiviral vector (protein, UniProt Q8IZP6 1-322, looked up)
RING finger protein 113B: MAAPPSPGRTADQADQVCTFLFKKPGRKGAAGLRKRPACDPEHGESSSSGDEGDTVAQPPRVAPRPRGLHSWQKAAHGDRRGEEAAPESLDVVYRSTRSAKPVGPEDMGATADFEQDTEKEHHTPTILKCSQRVQEALRGREHDHIYRGIHSYLRYLKPKDTSMGNSSSGMARKGPIRAPGHLRATVRWDYQPDICKDYKETGFCGFGDSCKFLHDRSDYKLGWEIERELEEGRYCICEDENHEVGSEEEEIPFRCFICRQAFQNPVVTKCRHYFCESCALEHFRATPRCYICDQPTGGIFNPAKELMAKLQKLQAAEGKKR
modifications: lentiviral expression
notes: as for B4
As for B8, the “Percent Infected R1” value came to 88% and the “Z score R1” value is listed as −0.01.

B9: RNF13: human RING type E3 ligase expressed from lentiviral vector (protein, UniProt O43567 35-381, looked up)
E3 ubiquitin-protein ligase …: DILAYNFENASQTFDDLPARFGYRLPAEGLKGFLINSKPENACEPIVPPPVKDNSSGTFIVLIRRLDCNFDIKVLNAQRAGYKAAIVHNVDSDDLISMGSNDIEVLKKIDIPSVFIGESSANSLKDEFTYEKGGHLILVPEFSLPLEYYLIPFLIIVGICLILIVIFMITKFVQDRHRARRNRLRKDQLKKLPVHKFKKGDEYDVCAICLDEYEDGDKLRILPCSHAYHCKCVDPWLTKTKKTCPVCKQKVVPSQGDSDSDTDSSQEENEVTEHTPLLRPLASVSAQSFGALSESRSHQNMTESSDYEEDDNEDTDSSDAENEINEHDVVVQLQPNGERDYNIANTV
As for B9, the “Percent Infected R1” value was 97.9% and the “Z score R1” value is 0.12.

B10: RFFL: human RING type E3 ligase expressed from lentiviral vector (protein, UniProt Q8WZ73 1-363, looked up)
E3 ubiquitin-protein ligase …: MWATCCNWFCLDGQPEEVPPPQGARMQAYSNPGYSSFPSPTGLEPSCKSCGAHFANTARKQTCLDCKKNFCMTCSSQVGNGPRLCLLCQRFRATAFQREELMKMKVKDLRDYLSLHDISTEMCREKEELVLLVLGQQPVISQEDRTRASTLSPDFPEQQAFLTQPHSSMVPPTSPNLPSSSAQATSVPPAQVQENQQANGHVSQDQEEPVYLESVARVPAEDETQSIDSEDSFVPGRRASLSDLTDLEDIEGLTVRQLKEILARNFVNYKGCCEKWELMERVTRLYKDQKGLQHLVSGAEDQNGGAVPSGLEENLCKICMDSPIDCVLLECGHMVTCTKCGKRMNECPICRQYVIRAVHVFRS
In the case of B10, the “Percent Infected R1” value is 88.2% and the “Z score R1” value is −0.01.

B11: RNF10: human RING type E3 ligase expressed from lentiviral vector (protein, UniProt Q8N5U6 1-811, looked up)
E3 ubiquitin-protein ligase …: MPLSSPNAAATASDMDKNSGSNSSSASSGSSKGQQPPRSASAGPAGESKPKSDGKNSSGSKRYNRKRELSYPKNESFNNQSRRSSSQKSKTFNKMPPQRGGGSSKLFSSSFNGGRRDEVAEAQRAEFSPAQFSGPKKINLNHLLNFTFEPRGQTGHFEGSGHGSWGKRNKWGHKPFNKELFLQANCQFVVSEDQDYTAHFADPDTLVNWDFVEQVRICSHEVPSCPICLYPPTAAKITRCGHIFCWACILHYLSLSEKTWSKCPICYSSVHKKDLKSVVATESHQYVVGDTITMQLMKREKGVLVALPKSKWMNVDHPIHLGDEQHSQYSKLLLASKEQVLHRVVLEEKVALEQQLAEEKHTPESCFIEAAIQELKTREEALSGLAGSRREVTGVVAALEQLVLMAPLAKESVFQPRKGVLEYLSAFDEETTEVCSLDTPSRPLALPLVEEEEAVSEPEPEGLPEACDDLELADDNLKEGTICTESSQQEPITKSGFTRLSSSPCYYFYQAEDGQHMFLHPVNVRCLVREYGSLERSPEKISATVVEIAGYSMSEDVRQRHRYLSHLPLTCEFSICELALQPPVVSKETLEMFSDDIEKRKRQRQKKAREERRRERRIEIEENKKQGKYPEVHIPLENLQQFPAFNSYTCSSDSALGPTSTEGHGALSISPLSRSPGSHADFLLTPLSPTASQGSPSFCVGSLEEDSPFPSFAQMLRVGKAKADVWPKTAPKKDENSLVPPAPVDSDGESDNSDRVPVPSFQNSFSQAIEAAFMKLDTPATSDPLSEEKGGKKRKKQKQKLLFSTSVVHTK
modifications: lentiviral expression
notes: as for B4
For the molecule B11, the “Percent Infected R1” value is on record as 88.9% and the “Z score R1” value came out at 0.

The values are drawn from patent US12104181B2, “Compositions and methods for treating viral infections targeting TRIM7” (THE BOARD OF REGENTS OF THE UNIVERSITY OF TEXAS SYSTEM, priority 2021, dated 2024).
